# Measured values: patent US20220226473A1, “Nucleic acid nanocarrier drug and preparation method thereof, pharmaceutical composition and application thereof” (BAI YAO ZHI DA (BEIJING) NANOBIO TECHNOLOGY CO., LTD., priority 2018, published 2022)
# {Biotin} = biotin of the strand
# B1: R-17: extension fragment deformation+core short-sequence RNA nanoparticle, SEQ ID NO: 126-128, 3′ biotin, 2′F (nucleic acid)
# chain 1: GCGGCGAGCGGCGAGGAGCGUUGGGGCCGGAGGCCGG
# chain 2: CCGGCCUCCGGCCCCUUCGCCGCCAGCCGCC
# chain 3: GGCGGCAGGCGGCCAUAGCCCUCGCCGCUCGCCGC
# modifications: chain 1: 2'-fluoro at CU, RNA at AG, 3' {Biotin}, backbone not given here; chain 2: 2'-fluoro at CU, RNA at AG, backbone not given here; chain 3: 2'-fluoro at CU, RNA at AG, backbone not given here; three-strand RNA nanoparticle
# B2: R-20: extension fragment deformation+core short-sequence RNA nanoparticle, SEQ ID NO: 135-137, 3′ biotin, 2′F (nucleic acid)
# chain 1: GCGGCGAGCGGCGACGAGCGUUGCGGCCGGAGGCCGG
# chain 2: CCGGCCUCCGGCCGCUUCGCCGCCAGCCGCC
# chain 3: GGCGGCAGGCGGCCAUAGCCGUCGCCGCUCGCCGC
# modifications: chain 1: 2'-fluoro at CU, RNA at AG, 3' {Biotin}, backbone not given here; chain 2: 2'-fluoro at CU, RNA at AG, backbone not given here; chain 3: 2'-fluoro at CU, RNA at AG, backbone not given here; three-strand RNA nanoparticle carrier
# B3: R-19: extension fragment deformation+core short-sequence RNA nanoparticle, SEQ ID NO: 132-134, 3′ biotin, 2′F (nucleic acid)
# chain 1: GCGGCGAGCGGCGAGCAGCGUUCGGGCCGGAGGCCGG
# chain 2: CCGGCCUCCGGCCCGUUCGGCCCCAGCCGCC
# chain 3: GGCGGCAGGGGCCCAUAGCGCUCGCCGCUCGCCGC
# modifications: chain 1: 2'-fluoro at CU, RNA at AG, 3' {Biotin}, backbone not given here; chain 2: 2'-fluoro at CU, RNA at AG, backbone not given here; chain 3: 2'-fluoro at CU, RNA at AG, backbone not given here; three-strand RNA nanoparticle carrier
# B4: R-21: extension fragment deformation+core short-sequence RNA nanoparticle, SEQ ID NO: 138-140, 3′ biotin, 2′F (nucleic acid)
# chain 1: GCGGCGAGCGGCGACGAGCGUUGCGGCCGGAGGCCGG
# chain 2: CCGGCCUCCGGCCGCUUCGGCGCCAGCCGCC
# chain 3: GGCGGCAGGCGCCCAUAGCCGUCGCCGCUCGCCGC
# modifications: chain 1: 2'-fluoro at CU, RNA at AG, 3' {Biotin}, backbone not given here; chain 2: 2'-fluoro at CU, RNA at AG, backbone not given here; chain 3: 2'-fluoro at CU, RNA at AG, backbone not given here; three-strand RNA nanoparticle carrier
# B5: D-8: extension fragment deformation+core short-sequence DNA nanoparticle, SEQ ID NO: 141-143, a-strand 3′ biotin (nucleic acid)
# chain 1: GCGGCGAGCGGCGAGGAGCGTTGGGGCCGGAGGCCGG
# chain 2: CCGGCCTCCGGCCCCTTCGGGGCCAGCCGCC
# chain 3: GGCGGCAGGCCCCCATAGCCCTCGCCGCTCGCCGC
# modifications: chain 1: DNA, 3' {Biotin}, backbone and methylation of C not given here; chain 2: DNA, backbone and methylation of C not given here; chain 3: DNA, backbone and methylation of C not given here; three-strand DNA nanoparticle carrier
# B6: R-18: extension fragment deformation+core short-sequence RNA nanoparticle, SEQ ID NO: 129-131, 3′ biotin, 2′F (nucleic acid)
# chain 1: GCGGCGAGCGGCGAGCAGCGUUCGGGCCGGAGGCCGG
# chain 2: CCGGCCUCCGGCCCGUUCGGCGCCAGCCGCC
# chain 3: GGCGGCAGGCGCCCAUAGCGCUCGCCGCUCGCCGC
# modifications: chain 1: 2'-fluoro at CU, RNA at AG, 3' {Biotin}, backbone not given here; chain 2: 2'-fluoro at CU, RNA at AG, backbone not given here; chain 3: 2'-fluoro at CU, RNA at AG, backbone not given here; RNA nanoparticle drug carrier
# What was measured:
# [1] = Electric potential (zeta potential) measurement of self-assembly products; format: physicochemical; settings: result over 3 detections, at 25 DEG C.
# Procedure: Measurement method: preparing a potential sample (the self-assembly product is dissolved in ultrapure water) and putting into a sample pool, opening a sample pool cover of an instrument, and placing the instrument;
# opening software, clicking a menu MeasUre€ManUal, so a manual measurement parameter setting dialog box appears;
# setting a software detection parameter;
# and then clicking Ok to complete the settings, after a measurement dialog box appears, clicking start to start.
# and then clicking Ok to complete the settings, after a measurement dialog box appears, clicking Start to start.
# Measurement method: preparing a potential sample (the self-assembly product is dissolved in ultrapure water) and putting into a sample pool, opening a sample pool cover of an instrument, and placing the instrument:
# Measurement result potential detection results of the 7 groups of the extension fragment deformation+core short-sequence RNA nanoparticles at 25 DEG C. are as follows:
# setting a software detection parameter; and then
# clicking Ok to complete the settings, after a measurement dialog box appears, clicking Start to start.
# Measurement result potential detection results of the 7 groups of the extension fragment deformation+core short-sequence DNA nanoparticles at 25 DEG C. are as follows: […]
# [2] = Particle size measurement (DLS hydrodynamic size); format: physicochemical; settings: DLS hydrodynamic size
# Excerpt: 1. Preparing a potential sample (conventional-sequence DNA self-assembly product D-7) and putting into a sample pool, opening a sample pool cover of an instrument, and placing the instrument;
# 2. opening software, and clicking a menu, so a manual measurement parameter setting dialog box appears;
# 3. setting a software detection parameter; and then
# 4. clicking Ok to complete the settings, when a measurement dialog box appears, clicking Start to start, a DLS measurement value result of a hydrodynamic size of the self-assembly product D-7 is shown below in Table 40: […]
# [3] = TM value detection by solubility curve method (SYBR Green I); format: physicochemical
# Procedure: A solubility curve method is used to detect TM values of the 7 groups of the extension fragment deformation+core short-sequence RNA nanoparticles, and the samples are consistent with the potential samples.
# (1) After the sample is diluted with ultrapure water, 5 μg of the diluted sample is mixed with 2 μL of SYBR Green I dye (diluted by 1:200), a final volume is 20 μL, and the dilution concentration is as follows:
# (2) It is incubated for 30 min in the dark at a room temperature; and
# (3) On-machine detection is performed, a program is set to start at 20 DEG C., the temperature rises per second from 0.1 DEG C. to 95 DEG C., and reading is performed every 5 s.
# Due to the particularity of the RNA samples, a temperature corresponding to ½ RFUmax in a range of 20 to 90 DEG C. is used as a sample Tm value in this test.
# A solubility curve method is used to detect TM values of the 7 groups of the extension fragment deformation+core short-sequence DNA nanoparticles, and the samples are consistent with the potential samples.
# (1) After the sample is diluted with ultrapure water, 5 μg of the diluted sample is mixed with 2 μL of SYBR Green I dye (diluted by 1:200). a final volume is 20 μL, and the dilution concentration is as follows: […]
# [4] = Drug loading rate of nucleic acid nanoparticles (chemical loading, absorbance standard curve); format: physicochemical; design: unit not given here; settings: chemical loading method of Embodiment 5
# Excerpt: According to the chemical loading method (unless otherwise specified, the method is the same as that of Embodiment 5) of Embodiment 5, the RNA nanoparticles formed by the self-assembly of the previous R-15, R-16, R-17, R-18, R-19, R-20 and R-21 in Embodiment 9, and the DNA nanoparticles formed by the self-assembly of the D-8, D-9, D-10, D-11, D-12, D-13 and D-14 in Embodiment 10 are respectively used as doxorubicin loading carriers, doxorubicin loading rates measured are respectively as follows:
# According to the chemical loading method (unless otherwise specified, the method is the same as that of Embodiment 5) of Embodiment 5, the DNA nanoparticles formed by the self-assembly of the previous D-10 and D-14 in Embodiment 10 are used as a daunorubicin loading carrier.
# According to a chemical loading method of Embodiment 5 (unless otherwise specified, the method is the same as that of Embodiment 5, the same molar number of the epirubicin is used as a loading amount), nucleic acid nanoparticles (a molecular weight is 29550, it is similar to the RNA nanoparticles in Embodiment 1, and a difference is that a fluorescent label on a c-strand is Cy5) are used as a carrier, and respectively loaded with: epirubicin, methotrexate, pirarubicin, daunorubicin, […], 10-hydroxycamptothecin, aspirin and gemcitabine.
# Herein, when a standard curve is drawn, the absorbance of the above drugs on the microplate reader is measured respectively. The absorbance of the epirubicin, methotrexate, pirarubicin, daunorubicin, […], 10-hydroxycamptothecin, aspirin and gemcitabine is respectively detected at the following wavelengths: 492 nm, 303 nm, 492 nm, 492 nm, 265 nm, 384 nm, 225 nm and 268 nm. The standard curves obtained correspondingly are respectively shown in FIG. 48a, FIG. 49, FIG. 50sa, FIG. 51, FIG. 52, FIG. 53, FIG. 54a and FIG. 55. […]
# HepG2 cells [5] = test: Cell binding of DNA nanoparticles and carrier drugs by FACS; format: cell-based; settings: incubated at 37 DEG C. for 2 h, flow cytometry
# Procedure: 1. A cell state is adjusted to a logarithmic growth phase, the medium is changed into a medium without biotin and folic acid, and it is incubated overnight in an incubator at 37 DEG C.
# 2. After incubation, cell suspension is trypsinized and collected, and centrifuged at 1000 rpm for 5 min, after the concentration is adjusted, a 2×10^6-5×10^6 cell/EP tube is taken and washed twice with 1 mL/tube of 1% BSA-PBS, and cells at the bottom of the tube is observed to prevent them from being absorbed.
# 3. A substance to be tested is dissolved, and the substance to be tested is diluted to a use concentration.
# 4. Cell supernatant is absorbed, 100 μL of a corresponding sample is added to each tube in order, light is avoided, and it is incubated at 37 DEG C. for 2 h.
# 5. It is washed twice with 1% BSA-PBS; and centrifuged at 1000 rpm for 5 min.
# 6. Finally, it is precipitated with 300 μL of PBS cell resuspension, and flow Cytometric on-machine detection (the blank carrier used in the present embodiment is labeled by Quasar670, and the doxorubicin in the carrier drug has its own fluorescence, so the detection may be performed through FL4-APC and FL2-PE respectively) is performed.
# HepG2 cells [6] = test: CCK8 toxicity of DNA nanoparticles and carrier drugs; format: cell-based; settings: HepG2, CCK8, 72 hours
# Procedure: A CCK8 method is used to detect the toxicity of DNA nanoparticles and carrier drugs to HepG2.
# 2. A sample to be tested is diluted according to the following table and added: the original culture medium is removed and 100 μL of a culture medium of the sample to be tested with the different concentration is added, and there are 3 replicate wells in each group.
# In the present embodiment, the loaded drug and the blank carrier are firstly prepared into 100 μM of stock solution using the PBS, and then diluted with the complete culture medium (biotin-free DMEM). The original drug doxorubicin is firstly prepared into 100 NM of stock solution by using the DMSO, and then diluted with the complete culture medium (biotin-free DMEM). The DMSO is directly diluted with the complete medium (biotin-free DMEM).
# 3. After the sample to be tested is added, the 96-well plate is placed in an incubator under 37 DEG C. and 5% CO2 and incubated for 72 hours.
# 4. A kit is taken out and melted at a room temperature, 10 μL of CCK-8 solution is added to each wall, or the CCK8 solution is nixed with the culture medium at a ratio of 1:9, and then added to the well in an amount of 100 μL/well.
# 5. It is continuously incubated in the cell incubator for 4 hours, and a length of time depends on experimental conditions such as a cell type and a el density.
# 6. A microplate reader is used to measure an absorbance at 450 nm.
# 7. Calculation: cell viability (%)=(OD experimental group−OD blank group)[…]/(OD control group−OD blank group), IC50 is calculated by GraphPad Prism 5.0.
# [7] = RNA nanoparticles, temperature corresponding to ½ RFUmax in 20 to 90 DEG C.
Molecule,"Potential ZP, Experiment result [1] [mV]",Mean particle size (nm) [2],"TM value (° C.) [3, 7] [°C]",doxorubicin loading rate [4],TM value (° C.) ([3]; DNA nanoparticles) [°C],"Positive rate (HepG2 cells [5]; HepG2, 1 μM) [%]","Positive rate (HepG2 cells [5]; HepG2, 2 μM) [%]",IC50 (HepG2 cells [6]) [nM]
B1,−23.50,7.592 nm,55.2,30.9,,,,
B2,−17.90,"7,110 nm",59.5,30.2,,,,
B3,−18.30,6.936 nm,54.0,27.1,,,,
B4,−16.10,6.720 nm,65.0,20.1,,,,
B5,−30.23,7.460 nm,,28.0,48.5,96.9,98.4,> 1000
B6,−21.27,7.520 nm,54.5,34.1,,,,
